Assay results taken from a protein production outcome set (Wang et al. 2014).

Test: label from the status in PepcDB records

| Sequence | protein production |
| --- | --- |
| MFSPEGPTRRELAVQALSSVERGYDLLAPKFDHTPYRTPDRVLDAVARGLEPLGPFAAGLDLCCGTGAGVEVLARVCQRDVTGVDFSAGMLEVARRRTLPPGPEVSWVRADARALPFGPAFDLVVSFGAFGHFLPRELPGLFGQVRSVLRPDGCFAFPVAAPPRPGSPGYWTLLGFDAAMRVRNALWRPPFVMYYRTFRLGAVGRELSRAGFRTDLHALPEFGRRPDGSPRARLVVARRLP | failed |
| MFSQTIFFGMKQSARGVSVAFSTLQEASMHKRVLIQAASALLALQFMAVPVFAAGSSGGGSDQTVTQCKKGEVWDKKKKKCVAPQEGMLDDDSIYDAGHALAMAGRYDEAISVLTLAANKQDPRILNYLGYSHRHSGRVTVGLGYYEEALRIDPNYTLVREYLGEAHLQIGDLAGAQQQLMEIEKRTGKGSREYGMLSEQIDHFMRS | failed |
| MFSSFSSRRRFRDLSDAEILALAISSEEDDARIYRSYADRLRAPYPGTAALFEAMAEEEDSHRRRLIGTFRDRFGETIPLIRREHVEGYPSRKPVWLLETLPLERVRREAWEMENAARSFYETAARHVTDASTRKLLGDLAAAEAAHEHRAERLAEEHLTDEATAAEDETARRQFILTWVQPGLAGLMDGSVSTLAPIFATAFATQDPATTFQVALAASVGAGISMGFTEAAHDDGVLSGRGAPWKRGLASGVMTTAGGLGHALPYLIPDFAWATGIAIAVVFFELWAIAWIQNRYMETPFLRAALQVVLGGGLVLAAGILIGFG | failed |
| MFTGMIRLVTLGTFAAALLSSPALAAGGGGGGGGGGSISSTDPYAGAYSDQKPQPTYPKRPGTKATQKGKKQGNQSSIGDPAFAAGYRVAYDTIYERNDYATAIAQLKSLGHDDHPNVANLIGYSYRKLGDYEQSQVWYERALRADPNHVQTWQYYGLWQLERGNREQALYHLGRIASICGTDCDEYRSLAAALDKPSGTALVY | failed |
| MFTLALPTPPPLAQARGSGLSAAFAAGAVIPVGDTPGGIALTPTGTRAYVANHGSNTVSVLDTVTDTVIDTIATGGGPNAVAFSPDGTRAYVTVADDGLVSVIDTATNTIVTDIAVGAGATGVAVTPDGSRVYVTLQSSDTVGVIDTATNTVTASIPAAGTPLGLVITPDGTRAYVACLFANAVRVIDTATNTVIATIPVGPVPILLAVSPGGTHVYVTNVGNSTVSVIDTATSAVIATVGVSAQPRFAAVSPDGFHVYVANSGPDTVSVIDTATQTVVENIGVGDGPTGIALLPDGTRAYVTNAVAGTVGVMATTVIPDQGSTAGGTTVTLTGHHLANATAVHFGTAQAVITANTATSMTVTAPAGSGAVPVTVTTAGGTGTLGHFYYVPVPALSGINPAAGPVAGSDDEIVLTGRHLAGAIDVYFGTTRAVIQTVSDNQVTVRAAGAPAPGGTAVTVITAGGSAGGLSYTYLDPSTVTGVSPDSGPTTGGTEVTITGTGLAGTEQVTFNGIPAAFTVVSDSTLTATTPPSGAAGPVGVTVTGPGGAPAGTFTYVSEPDI | failed |
| MFTLRELPFAKDSMGDFLSPVAFDFHHGKHHQTYVNNLNNLIKGTDFEKSSLFDILTKSSGGVFNNAAQIYNHDFYWDCLSPKATALSDELKGALEKDFGSLEQFKEDFIKSATTLFGSGWNWVAYNLDTQKIEIIQTSNAQTPVTDKKVPLLVVDVWEHAYYIDHKNARPVYLEKFYEHINWHFVSQCYEWAKKEGLGSVDYYINELVHKKA | failed |
| MFTRRGDQGETDLANRARVGKDSPVVEVQGTIDELNSFIGYALVLSRWDDIRNDLFRIQNDLFVLGEDVSTGGKGRTVTREMIDYLEARVKEMKAEIGKIELFVVPGGSIESASLHMARAVSRRLERRIVAASKLTEINKNVLIYANRLSSILFMHALLSNKRLNIPEKIWSIHRVS | not failed |
| MFVDRIVLSFRGAGLERANTCLRKGQRLRKACSHVFRPLCSSDLPVNLPTDLETKRVMKPPLAERESIWSYPRPPRVEPNTRHLRVVHNQVTIAETRRGYRVLEYSHPPSYYIPLDDIDLQYVMVSSKVRSTFCEFKGEATYYDVEVGWEVSEGAAWSYDFPTRAYRMLKDHIAFYPAKVDACWVDEYRVRPEPRSFYGGWVTPLVKGVYPEEDVEDDEDSSGGDGKDSATQ | not failed |
| MFVFIPLFTIFILLAGGYFAKRIGVLKQKQARTFLDFAIIFALPCLIFDKAYHLNFDFSLIIFIFIGLFSCILAAFFAILIGKVFHFSKVTLVSMFLLSCFGNTIFVGMPIVAGIFNDPQFSAEVIFYDALATTLPISLFGPFILSLGNGEKVSLLANVKKILSFPPFLALLFGFLCKLITLPEFIFSPIRLFGASATPVALFAIGLGLGFMAIKTSYKPTIVVIFTKMILAPLFFVFCLKIFNLELKDSTIVAIIESAAPTMTLAGAMVMKAKLDSNLAVSAVAFGVLFAFVSMPILIWTLL | failed |
| MFVLKNFKIVFSYFPIVLQYILNVALICLGVVLSVFLMKEVIQFMQELKLDGNESSYHLIDSIVVFFLYFEFIVMIIKYFQMNFHFPLRYFIYIGITAIVRLIIIDHDSPLDLLLYACAIFVLISALFIANSKMMRWDLE | failed |
| MFVVAVANTKGGCGKTTLATHLAASFACRGYATGLADLDRQKSALGWLKRRPEGAAPIQGINLAREEDIPEGIERLVVDAAAAMDKDVVKDIVRRADLVVVPVLPGVFDEDGTARFVGHLESLKSIRKNRRDVAFVANRVRLNTRALTRLGGFLEELSFPVIARLRDTQHYTAAAAEGLSLFDLPGGRAADYRAEWTPLLDFIEIRVRGLEHHHHHH | not failed |
| MFYPDPFDVIIIGGGHAGTEAAMAAARMGQQTLLLTHNIDTLGQMSCNPAIGGIGKGHLVKEVDALGGLMAKAIDQAGIQFRILNASKGPAVRATRAQADRVLYRQAVRTALENQPNLMIFQQAVEDLIVENDRVVGAVTQMGLKFRAKAVVLTVGTFLDGKIHIGLDNYSGGRAGDPPSIPLSRRLRELPLRVGRLKTGTPPRIDARTIDFSVLAQQHGDNPMPVFSFMGNASQHPQQVPCYITHTNEKTHDVIRSNLDRSPMYAGVIEGVGPRYCPSIEDKVMRFADRNQHQIFLEPEGLTSNEIYPNGISTSLPFDVQMQIVRSMQGMENAKIVRPGYAIEYDFFDPRDLKPTLESKFIQGLFFAGQINGTTGYEEAAAQGLLAGLNAARLSDDKEGWAPARSQAYLGVLVDDLCTLGTKEPYRMFTSRAEYRLMLREDNADLRLTEIGRELGLVDDERWARFNEKLENIERERQRLKSTWVTPSAEAAAEVNAHLTAPLSREASGEDLLRRPEMTYEKLTTLTPFAPALTDEQAAEQVEIQVKYEGYIARQQDEIEKQLRNENTLLPATLDYRQVSGLSNEVIAKLNDHKPASIGQASRISGVTPAAISILLVWLKKQGMLRRSA | not failed |
| MFYRLLFASLWYILPAYVANASACIFGGGTPVDLGKNFIDGRRLIGNGVTYRGCIFGILCGTLVGLIQGILVDFNIFNSLDFYGTVLDHVILAFFLSVGAIVGDAVGSFIKRRLNIERGKPAPLLDQLDFVIGALAFGYIVAPIPYEMIIIICLFTVFVHLLGNIIAYKLGIKDVWW | failed |
| MGAAKNIWALANAEDAANDAEQIPYSSFVVDTSLPLPLMIPRIIELCKDLFKNWGELDDSLFSVERVSGGITNLLLKVSVKEDTNKEVSVTVRLYGPNTEYVINREREILAIKYLSAAGFGAKLLGGFGNGMVQSFINARTLEPSDMREPKIAAQIARELGKFHKVDIPGSKEPQLWVDILKFYEKASTLTFEEPDKQKLFETISFEELHKEIIELREFTGLLNAPVVFAHNDLLSGNFMLNDEEEKLYLIDFEYGSYNYRGFDIGNHFNEYAGYDCDYSLYPSKEEQYHFIKHYLQPDKPDEVSIAEVESVFVETDAYKLASHLYWAIWAIIQARMSPIEFEYLGYFFLRYNEYKKQKPLTFSLVTSHLSASL | failed |
| MGAAVGTSEAIQMVNQRQAVWVDVRPTEQFQAGHIAQARSLPAADLEKKAGALPKNKPLIVVCEQGRDAARIAARLRSQGFAEVSVLEGGMRAWFAAGLPVTQKGLEHHHHHH | failed |
| MGAFNRRNKRVNNGNVTHLRPFRRNQLRNDNAYDPDEHDLEYVRPRRRGIYLLPNAFTTAALFAGFFAIVQAMNMRFDVAAIAIFAAMVLDGMDGRVARITNTQSAFGEQYDSLSDMTSFGVAPALVMYEWILHDLGKWGWIAAFVYCTCAALRLARFNANIGVVDKRFFQGLPSPAAAALVAGFVWLAIDNKLPVKELWMPWVAFGITLYAGLSMVSNAPFYSGKALDVRYRVPFGMMVLVLVLFVVVSSDPPVALFGLFVAYAISGYLLWAWRTLHGQRGGVDKSRAPGNGSGGN | failed |
| MGAGQTPHPQLIWPALLKQQGCNELLPLRTNDDWQRFCADSKHLLQYGDKLVDSNFHCFVLEEDAHWHPAAPLPPEGLNDLIRAHCATLGHCCTSKMHLHSVMDAIDFLNALEG | not failed |
